Measured values from the Human Domainome abundance scans (Beltran et al. 2025).
± gives the uncertainty stated by the source.

Assay: abundance fitness (aPCA) (normalised: wild type 0, dead -1); higher = more abundant; growth selection in yeast, the domain comes from the species named
Conditions: Homo sapiens

| Substance | abundance fitness |
| --- | --- |
| SAFB-like transcription modulator I22E, Q9NWH9 | -0.57 ± 0.11 |
| SAFB-like transcription modulator I22F, Q9NWH9 | -0.372 ± 0.087 |
| SAFB-like transcription modulator I22G, Q9NWH9 | -0.562 ± 0.044 |
| SAFB-like transcription modulator I22H, Q9NWH9 | -0.471 ± 0.12 |
| SAFB-like transcription modulator I22K, Q9NWH9 | -0.576 ± 0.072 |
| SAFB-like transcription modulator I22L, Q9NWH9 | -0.115 ± 0.061 |
| SAFB-like transcription modulator I22N, Q9NWH9 | -0.659 ± 0.11 |
| SAFB-like transcription modulator I22P, Q9NWH9 | -0.736 ± 0.089 |
| SAFB-like transcription modulator I22Q, Q9NWH9 | -0.606 ± 0.093 |
| SAFB-like transcription modulator I22R, Q9NWH9 | -0.743 ± 0.048 |
| SAFB-like transcription modulator I22S, Q9NWH9 | -0.521 ± 0.065 |
| SAFB-like transcription modulator I22T, Q9NWH9 | -0.542 ± 0.1 |
| SAFB-like transcription modulator I22V, Q9NWH9 | -0.132 ± 0.037 |
| SAFB-like transcription modulator I22W, Q9NWH9 | -0.94 ± 0.085 |
| SAFB-like transcription modulator I22Y, Q9NWH9 | -0.531 ± 0.085 |
| SAFB-like transcription modulator I28A, Q9NWH9 | 0.055 ± 0.1 |
| SAFB-like transcription modulator I28E, Q9NWH9 | -0.1 ± 0.11 |
| SAFB-like transcription modulator I28F, Q9NWH9 | -0.417 ± 0.17 |
| SAFB-like transcription modulator I28G, Q9NWH9 | -0.106 ± 0.064 |
| SAFB-like transcription modulator I28K, Q9NWH9 | -0.22 ± 0.22 |
| SAFB-like transcription modulator I28N, Q9NWH9 | -0.59 ± 0.23 |

| Substance | abundance fitness |
| --- | --- |
| SAFB-like transcription modulator I28P, Q9NWH9 | 0.193 ± 0.13 |
| SAFB-like transcription modulator I28Q, Q9NWH9 | -0.36 ± 0.13 |
| SAFB-like transcription modulator I28R, Q9NWH9 | -0.018 ± 0.057 |
| SAFB-like transcription modulator I28S, Q9NWH9 | -0.411 ± 0.12 |
| SAFB-like transcription modulator I28T, Q9NWH9 | -0.129 ± 0.12 |
| SAFB-like transcription modulator I28V, Q9NWH9 | 0.01 ± 0.069 |
| SAFB-like transcription modulator I28W, Q9NWH9 | -0.365 ± 0.11 |
| SAFB-like transcription modulator I28Y, Q9NWH9 | -0.306 ± 0.15 |
| SAFB-like transcription modulator I41A, Q9NWH9 | 0.075 ± 0.075 |
| SAFB-like transcription modulator I41C, Q9NWH9 | -0.08 ± 0.15 |
| SAFB-like transcription modulator I41D, Q9NWH9 | -0.457 ± 0.11 |
| SAFB-like transcription modulator I41E, Q9NWH9 | -0.139 ± 0.083 |
| SAFB-like transcription modulator I41F, Q9NWH9 | 0.197 ± 0.079 |
| SAFB-like transcription modulator I41G, Q9NWH9 | -0.158 ± 0.064 |
| SAFB-like transcription modulator I41H, Q9NWH9 | 0.157 ± 0.093 |
| SAFB-like transcription modulator I41K, Q9NWH9 | -0.336 ± 0.11 |
| SAFB-like transcription modulator I41L, Q9NWH9 | -0.087 ± 0.065 |
| SAFB-like transcription modulator I41M, Q9NWH9 | 0.08 ± 0.075 |
| SAFB-like transcription modulator I41N, Q9NWH9 | -0.68 ± 0.2 |
| SAFB-like transcription modulator I41Q, Q9NWH9 | -0.022 ± 0.082 |
